# Data: the RNAGym collection of RNA variant scans (doi:10.7554/elife.80360)
# B1: HDV Ribozyme (parent)
# chain: GGCCGGCAUGGUCCCAGCCUCCUCGCUGGCGCCGGCUGGGCAACAUUCCGAGGGGACCGUCCCCUCGGUAAUGGCGAAUGGGACCCA
# Variants of: B1
# Assay: self-cleavage, relative activity (ratio to wild type); higher = more cleavage; co-transcriptional
row,Variant,self-cleavage
1,GGCCGGCAUGGUCCCAGCCUCCUCGCUGGCGCCGGCUGGGCAACAUUCCGAGGGGACCGUCGCCUCGCUAAUGGCGAAUGGGACCCA [C62G G68C],0.196
2,GGCCGGCAUGGUCCCAGCCUCCUCGCUGGCGCCGCCUGGGCUACAUUCCGAGGGGACCGUCCCCUCGGUAAUGGCGAAUGGGACCCA [G35C A42U],0.0339
3,GGCCGGCAUGGUCCCAGCCUCCUCGCAGGCGCCGGCUGGGCAACAUUCCGAGGGGACCGUCCCCUCGGUAAUGGCGCAUGGGACCCA [U27A A77C],0
4,GGCCGGCAUGGUCCCAGCCUCAUCGCUGGCGCCGGCUGGGCAACAUUCCGAGGGGACCGUCCCCUCGGUAAUGGCGAAUGGUACCCA [C22A G82U],0.111
5,GGCCGGCAUGGUCCCAGCCUCCUCGCUCGCGCCGGCUGGGCAACAUUCCGAGGGGACCGUCCCCUCGGUAAUGGCGAAAGGGACCCA [G28C U79A],0
6,GGCCGGCAUGGUCCCAGCCUCCUCGCUGGCGCCGGCUGGGCAACAGUCCGGGGGGACCGUCCCCUCGGUAAUGGCGAAUGGGACCCA [U46G A51G],0.739
7,GGCAGGCAUGGUCCCAGCCUCCUCGCUGGCGCCGGCUGGGCAACAUACCGAGGGGACCGUCCCCUCGGUAAUGGCGAAUGGGACCCA [C4A U47A],0.156
8,GGCCGGCAUGGUCCCAGCCUCCUCGCUGGCGCCGGCUGGGCAACAUUCCGAGGGGACCGUCCCCUCGGUAAUGGUGAGUGGGACCCA [C75U A78G],0.214
9,GGCCGGCAUGGUCCCAGCCUCCUCGCUGGCGCCGGCGGGGCGACAUUCCGAGGGGACCGUCCCCUCGGUAAUGGCGAAUGGGACCCA [U37G A42G],0.0723
10,GGCCGGCAUGCUCCCAGCCUCCUCGCUGGCGCCGGCUGGGCGACAUUCCGAGGGGACCGUCCCCUCGGUAAUGGCGAAUGGGACCCA [G11C A42G],0.161
11,GGCCGGCAUGGUCCCAGCCUCCUCGCUGGCGCCAGCUUGGCAACAUUCCGAGGGGACCGUCCCCUCGGUAAUGGCGAAUGGGACCCA [G34A G38U],0.138
12,GGCCGGCAUGGUCCCAGCCUCCUCGCUGGCGCCGGCUCGGCAACAUUCCGAUGGGACCGUCCCCUCGGUAAUGGCGAAUGGGACCCA [G38C G52U],0.249
13,GGCCGGCAUGGUCCCAGCCUCCUCGCUGGCGCCGGCUGGGCAACAUUUCGAGGGGACCGUGCCCUCGGUAAUGGCGAAUGGGACCCA [C48U C61G],0.855
14,GGCCGGCAUGGUCCCAGCCUCCUCGCUGGCGCCGGCUGGGCAACAUUCCGUGGGGACCGUCCCCUCGGUAAUGGCGAAUGGGACCCA [A51U],0.981
15,GGCCGGCAUGGUCCCAGCCUCCUCGCUGGCGCCGGCUGGGCAACAUUACGAGGGGACCGUCCCCUCGGUAAGGGCGAAUGGGACCCA [C48A U72G],0.525
16,GGCCGGCAUGGUCCCAGCCUCCUCGCUGGCUUCGGCUGGGCAACAUUCCGAGGGGACCGUCCCCUCGGUAAUGGCGAAUGGGACCCA [G31U C32U],0.115

row,Variant,self-cleavage
1,GGCCGGCAUGGUCCCAGCCUCCUCGCUGGCGCCAGCGGGGCAACAUUCCGAGGGGACCGUCCCCUCGGUAAUGGCGAAUGGGACCCA [G34A U37G],0.219
2,GGCCGGCAUGGUCCCAGCCUCCUCGCUGGCGCCGGCUGGGCAACAUUCCGAGGGGACCGUCCCCUGGGUAAUGUCGAAUGGGACCCA [C66G G74U],0.396
3,GGCCGGCAUGGUCCCAGCCUCCUCGCUGGCGCCGGCUGGGCAACAUUCCGAGGGGACCGUCCCCUCGGUAAUUGGGAAUGGGACCCA [G73U C75G],0.086
4,GGCCGGCAUGGUCCCAGCCGCCUCGCUGGCGCCUGCUGGGCAACAUUCCGAGGGGACCGUCCCCUCGGUAAUGGCGAAUGGGACCCA [U20G G34U],0.0519
5,GGCCGGCAUGGUCCCAGCCUCCUCGCUGGCGCCGGCUGGGCAACAUUCCGAGGGGACCGUCCCCUCGGUAAUGGCGAAAGGGACCCA [U79A],0.808
6,GGCCGGCAUGGUCCCAGCCUCCUCGCUGGCGCCGCCUGGGCAACAUUCCGAGGGGACCGUCCCCUCGGUAAUGGCGUAUGGGACCCA [G35C A77U],0.181
7,GGCCCGCAUGGUCCCAGCCUCCUCGCUGGCGCCGGCUGGGCAACAUUCCGAUGGGACCGUCCCCUCGGUAAUGGCGAAUGGGACCCA [G5C G52U],0.23
8,GGCCGGCAUGGCCCCAGCCUCCUCGCUGGCGCCGGCUGGGCAACAUUCCGAGGGGACCGUCCCCACGGUAAUGGCGAAUGGGACCCA [U12C U65A],0.489
9,GGCCGGCAUGGUCCCCGCCUCCUCGCUGGCGCCGGCUGGGCAACAUUCCGAGGUGACCGUCCCCUCGGUAAUGGCGAAUGGGACCCA [A16C G54U],0.789
10,GGCCGGCAUGGUCCCAGCCUCCUCGCUGGCGCCGGCUGGGCACCAUUCCGAGGGGACCGUCCCCUCGGUAAUGGCGAAUGGGACCCG [A43C A87G],0.306
11,GGCCGGCAUGGUCCCAGCCUCCUCGCUGGCGCCGGCUGGGCAACAUCCCGAGGGGACCGUCCCCUCGGUAAUGACGAAUGGGACCCA [U47C G74A],0.233
12,GGCCGGCAUGGUCCCAGCCUCCUCGUUGGCGCCGGCUGGGCAACAUUCCGAGGGGACCCUCCCCUCGGUAAUGGCGAAUGGGACCCA [C26U G59C],0.935
13,GGCCGGCAUGGUCCCAGCCUCCUCGCUGGCGCCCGCUGGGCACCAUUCCGAGGGGACCGUCCCCUCGGUAAUGGCGAAUGGGACCCA [G34C A43C],0.364
14,GGCCGGCAUGGUCCCAGCCUCCUCGCGGGCGCCGGCUGGGCAACUUUCCGAGGGGACCGUCCCCUCGGUAAUGGCGAAUGGGACCCA [U27G A45U],0.831
15,GGCCGGCAUGGUCCCAGCCUCCUCGCUGGCGCCGGCUGGUCAACAUUCCGAGGGGACCGUCCCCGCGGUAAUGGCGAAUGGGACCCA [G40U U65G],0.546
16,GGCUGGCAUGGUCCCAGCCGCCUCGCUGGCGCCGGCUGGGCAACAUUCCGAGGGGACCGUCCCCUCGGUAAUGGCGAAUGGGACCCA [C4U U20G],0
